The results in this text go back to PMC4692061 (Biochemical Journal, 2015).

In general, stoichiometry N refers to the number of molecules, sites or subunits per partner or assembly.

The series concerns the molecule itself. The series is described as follows: FRET or BRET. On the technique in general: Bioluminescence resonance energy transfer reports proximity on the nanometre scale.

B1: full-length EphA3 (erythropoietin-producing hepatocellular carcinoma A3 receptor tyrosine kinase) tagged at the C-terminus with mTurq or eYFP (receptor, UniProt P29320 21-983, looked up)
chain: ELIPQPSNEVNLLDSKTIQGELGWISYPSHGWEEISGVDEHYTPIRTYQVCNVMDHSQNNWLRTNWVPRNSAQKIYVELKFTLRDCNSIPLVLGTCKETFNLYYMESDDDHGVKFREHQFTKIDTIAADESFTQMDLGDRILKLNTEIREVGPVNKKGFYLAFQDVGACVALVSVRVYFKKCPFTVKNLAMFPDTVPMDSQSLVEVRGSCVNNSKEEDPPRMYCSTEGEWLVPIGKCSCNAGYEERGFMCQACRPGFYKALDGNMKCAKCPPHSSTQEDGSMNCRCENNYFRADKDPPSMACTRPPSSPRNVISNINETSVILDWSWPLDTGGRKDVTFNIICKKCGWNIKQCEPCSPNVRFLPRQFGLTNTTVTVTDLLAHTNYTFEIDAVNGVSELSSPPRQFAAVSITTNQAAPSPVLTIKKDRTSRNSISLSWQEPEHPNGIILDYEVKYYEKQEQETSYTILRARGTNVTISSLKPDTIYVFQIRARTAAGYGTNSRKFEFETSPDSFSISGESSQVVMIAISAAVAIILLTVVIYVLIGRFCGYKSKHGADEKRLHFGNGHLKLPGLRTYVDPHTYEDPTQAVHEFAKELDATNISIDKVVGAGEFGEVCSGRLKLPSKKEISVAIKTLKVGYTEKQRRDFLGEASIMGQFDHPNIIRLEGVVTKSKPVMIVTEYMENGSLDSFLRKHDAQFTVIQLVGMLRGIASGMKYLSDMGYVHRDLAARNILINSNLVCKVSDFGLSRVLEDDPEAAYTTRGGKIPIRWTSPEAIAYRKFTSASDVWSYGIVLWEVMSYGERPYWEMSNQDVIKAVDEGYRLPPPMDCPAALYQLMLDCWQKDRNNRPKFEQIVSILDKLIRNPGSLKIITSAAARPSNLLLDQSNVDITTFRTTGDWLNGVWTAHCKEIFTGVEYSSCDTIAKISTDDMKKVGVTVVGPQKKIISSIKALETQSKNGPVPV
On to B1, for which the “stoichiometry N” value came to 2.
